Source: patent US11015206B2, “Compositions and methods comprising sequences having hydroxyphenylpyruvate dioxygenase (HPPD) activity” (PIONEER HI-BRED INTERNATIONAL, INC., priority 2014, dated 2021)

Legend:
Format in all cases: biochemical, Z. mays
[1] = system: 4-hydroxyphenylpyruvate dioxygenase (HPPD); assay: Estimate of kcat from initial rate at saturating hydroxyphenylpyruvate without inhibitor (ON rate ratio assay); settings: Table 5; single substitutions in Round 7 variant 9070 (SEQ ID NO:2); estimate from initial rate at saturating hydroxyphenylpyruvate without inhibitor
Method in brief: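 Reactions used 60 or 120 nM HPPD and saturating 100 μM hydroxyphenylpyruvate without inhibitor. kcat was estimated from the initial rate at the known enzyme concentration.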

[2] = system: 4-hydroxyphenylpyruvate dioxygenase (HPPD); assay: OFF rate ratio: release of inhibitor from pre-formed enzyme-inhibitor complex; settings: Table 5; tembotrione
Method in brief: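 HPPD (7.2 μM) pre-incubated 1 h at RT with inhibitor (8 μM), then diluted into 25 mM Hepes pH 7, 2 mM ascorbate, 10 μM FeSO4, 100 μM HPP, 50 nM HGD; A320 followed 12 min. Ratio = steady-state rate with inhibitor over initial rate of inhibitor-free enzyme.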

[3] = system: 4-hydroxyphenylpyruvate dioxygenase (HPPD); assay: ON rate ratio: HPPD reaction rate with vs without inhibitor in the 70 to 90 second interval; settings: Table 5; tembotrione
Method in brief: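 Time courses of HPPD reactions, 60 or 120 nM enzyme with 100 μM HPP substrate, run with and without 4 μM inhibitor (e.g. mesotrione, tembotrione). Value is the rate with inhibitor over rate without, taken over 70–90 s; higher ratio reflects slower kON.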

[4] = system: 4-hydroxyphenylpyruvate dioxygenase (HPPD); assay: HPPD activity coupled assay with HGD; substrate saturation kinetic parameters (kcat, KM); settings: Table 6; for kcat: single substitutions in SEQ ID NO:2
Method in brief: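 Coupled continuous assay: His-tagged HPPD (5 to 240 nM, E. coli-expressed, Ni-NTA-purified) with 50 nM P. aeruginosa HGD in 25 mM Hepes pH 7, 2 mM ascorbate, 10 μM FeSO4; maleylacetoacetate followed at 320 nm. KM and Vmax from Lineweaver-Burke fits over 3.33–100 μM HPP.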

[5] = system: 4-hydroxyphenylpyruvate dioxygenase (HPPD); assay: Insensitivity parameter (ON × OFF) and trait fitness (ON × OFF × kcat/KM or × kcat); settings: for ON × OFF × kcat, Value / ON × OFF × kcat, Fold vs wt / ON × OFF, fold vs wt / ON × OFF (parameters with tembotrione): Table 5, tembotrione; for ON × OFF × kcat, Fold vs wt / ON × OFF, fold vs wt: fold vs maize wild type HPPD; for ON × OFF (parameters with tembotrione): insensitivity parameter
Method in brief: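 Calculated, not measured directly: ON rate ratio × OFF rate ratio gives an insensitivity parameter serving as a KD surrogate.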

[6] = DKN (diketonitrile form of isoxaflutole)
[7] = DKN (isoxaflutole diketonitrile)

| Molecule | kcat [1] | OFF ratio (parameters with tembotrione) [2] | ON ratio (parameters with tembotrione) [3] | Km [4] | kcat [4] | Insensitivity parameter, ON × OFF [5, 6] | ON × OFF × kcat/km fold vs Round 7, variant 9070 [5, 7] | Insensitivity parameter, ON × OFF ([5]; Mesotrione, Table 6) | ON × OFF × kcat/km fold vs Round 7, variant 9070 ([5]; Sulco (sulcotrione)) | Insensitivity parameter, ON × OFF ([5]; Sulcotrione) | ON × OFF × kcat, Value [5] | ON × OFF × kcat, Fold vs wt [5] | ON × OFF, fold vs wt [5] | ON × OFF (parameters with tembotrione) [5] | Insensitivity parameter, ON × OFF ([5]; Tembotrione) | ON × OFF × kcat/km fold vs Round 7, variant 9070 ([5]; Topra (topramezone)) | Insensitivity parameter, ON × OFF ([5]; Topramezon) | ON × OFF × kcat/km fold vs Round 7, variant 9070 ([5]; meso (mesotrione)) | ON × OFF × kcat/km fold vs Round 7, variant 9070 ([5]; tembo (tembotrione)) |
| --- | --- | --- | --- | --- | --- | --- | --- | --- | --- | --- | --- | --- | --- | --- | --- | --- | --- | --- | --- |
| 191G: single substitution A191G in SEQ ID NO:2 (protein, Zea mays variant form created by artificial means.) MGPTPTATAAGAAVAAASAAEQAAFRLVGHRNFVRFNPRSDRFQTLAFHHVELWCADAASAAGRFSFALGVPLAARSDLSTGNSAHASLLLRSGSLSLLFTAPYAHGADAATAALPSFSAAAARRFAADHGLAVRAVALRVADAEDAFRASVAAGARPAFGPVDLGRGFRLAEVELYGDVVLRYVSYPDGGAGEPFLPGFEGVASPGAADYGLSRFDHIVGNVPELAPAAAYMAGFTGFHEFAEFTTEDVGTTESGLNSMALANNSENVLLPLNEPVHGTKRRSQIQTFLDHHGGPGVQHIALASDDVLRTLREMRARSAMGGFEFLPPPLSDYYDGVRRCAGDVLTEAQINECQELGVMVDRDDQGVLLQIFTKPVGDRPTFFLEIIQRIGCMEKDEKGQEYQKGGCGGFGKGNFGQLFKSIEDYEKSLEAKQAAAAATAQGS | 0.71 s⁻¹ | 0.13 | 0.77 | 2.46 µM | 1.2 s⁻¹ | 0.25 | 1.1 | 0.40 | 1.1 | 0.51 | 4.36 | 4.08 | 20.1 | 0.10 | 0.19 | 1.1 | 0.24 | 1.1 | 1.0 |
| 366E: single substitution Q366E in Round 7, variant 9070 (SEQ ID NO:2) (protein, Zea mays variant form created by artificial means.) MGPTPTATAAGAAVAAASAAEQAAFRLVGHRNFVRFNPRSDRFQTLAFHHVELWCADAASAAGRFSFALGVPLAARSDLSTGNSAHASLLLRSGSLSLLFTAPYAHGADAATAALPSFSAAAARRFAADHGLAVRAVALRVADAEDAFRASVAAGARPAFGPVDLGRGFRLAEVELYGDVVLRYVSYPDGAAGEPFLPGFEGVASPGAADYGLSRFDHIVGNVPELAPAAAYMAGFTGFHEFAEFTTEDVGTTESGLNSMALANNSENVLLPLNEPVHGTKRRSQIQTFLDHHGGPGVQHIALASDDVLRTLREMRARSAMGGFEFLPPPLSDYYDGVRRCAGDVLTEAQINECQELGVMVDRDDEGVLLQIFTKPVGDRPTFFLEIIQRIGCMEKDEKGQEYQKGGCGGFGKGNFGQLFKSIEDYEKSLEAKQAAAAATAQGS | 0.335 s⁻¹ | 0.24 | 0.75 | 1.61 µM | 0.647 s⁻¹ | 0.44 | 1.7 | 0.78 | 1.4 | 0.74 | 3.58 | 3.35 | 34.9 | 0.18 | 0.33 | 1.9 | 0.48 | 1.8 | 1.8 |
| 417S: single substitution G417S in SEQ ID NO:2 (protein, Zea mays variant form created by artificial means.) MGPTPTATAAGAAVAAASAAEQAAFRLVGHRNFVRFNPRSDRFQTLAFHHVELWCADAASAAGRFSFALGVPLAARSDLSTGNSAHASLLLRSGSLSLLFTAPYAHGADAATAALPSFSAAAARRFAADHGLAVRAVALRVADAEDAFRASVAAGARPAFGPVDLGRGFRLAEVELYGDVVLRYVSYPDGAAGEPFLPGFEGVASPGAADYGLSRFDHIVGNVPELAPAAAYMAGFTGFHEFAEFTTEDVGTTESGLNSMALANNSENVLLPLNEPVHGTKRRSQIQTFLDHHGGPGVQHIALASDDVLRTLREMRARSAMGGFEFLPPPLSDYYDGVRRCAGDVLTEAQINECQELGVMVDRDDQGVLLQIFTKPVGDRPTFFLEIIQRIGCMEKDEKGQEYQKGGCGGFGKGNFSQLFKSIEDYEKSLEAKQAAAAATAQGS | 0.308 s⁻¹ | 0.28 | 0.82 | 1.41 µM | 0.445 s⁻¹ | 0.41 | 0.9 | 0.67 | 1.1 | 0.77 | 4.26 | 3.98 | 45.2 | 0.23 | 0.33 | 1.2 | 0.41 | 1.3 | 1.6 |
| 182M: single substitution L182M in SEQ ID NO:2 (protein, Zea mays variant form created by artificial means.) MGPTPTATAAGAAVAAASAAEQAAFRLVGHRNFVRFNPRSDRFQTLAFHHVELWCADAASAAGRFSFALGVPLAARSDLSTGNSAHASLLLRSGSLSLLFTAPYAHGADAATAALPSFSAAAARRFAADHGLAVRAVALRVADAEDAFRASVAAGARPAFGPVDLGRGFRLAEVELYGDVVMRYVSYPDGAAGEPFLPGFEGVASPGAADYGLSRFDHIVGNVPELAPAAAYMAGFTGFHEFAEFTTEDVGTTESGLNSMALANNSENVLLPLNEPVHGTKRRSQIQTFLDHHGGPGVQHIALASDDVLRTLREMRARSAMGGFEFLPPPLSDYYDGVRRCAGDVLTEAQINECQELGVMVDRDDQGVLLQIFTKPVGDRPTFFLEIIQRIGCMEKDEKGQEYQKGGCGGFGKGNFGQLFKSIEDYEKSLEAKQAAAAATAQGS | 0.433 s⁻¹ | 0.28 | 0.79 | 2.88 µM | 0.935 s⁻¹ | 0.30 | 0.9 | 0.44 | 0.9 | 0.60 | 5.63 | 5.26 | 42.5 | 0.22 | 0.23 | 0.9 | 0.29 | 0.8 | 1.0 |
